Here are results for 2 molecules from patent US8022177B2, “Peptides and calcium regulation in mammalian cells” (The Board of Trustees of the University of Illinois, priority 2005, dated 2011).

Holding throughout (assay type): cell-based
Assay [1] has as its target T1, Cav3.1 (Homo sapiens, UniProt O43497).
T1 construct: expressed in transfected cells; host or cells: HEK-293, stably transfected
Briefly: Whole-cell patch clamp of Cav3.1 LVA current in HEK/Cav3.1 cells transfected with γ6/γ4 chimeric and truncated constructs (Example 2). As to conditions: Table 1 (Example 2). As for the experimental part:
Transfection—HEK-293 cell lines stably transfected with Cav3.1 were transiently transfected with vectors containing γ subunit cDNAs using Lipofectamine 2000 reagent (Invitrogen) as per the manufacturer's recommendations. HEK-293 cells were grown to 70-80% confluence before transfection.
Electrophysiology—Whole-cell calcium currents were recorded using an Axopatch-1D patch clamp system and Clampex 8.0 software. Pipettes were fabricated from borosilicate glass and had typical resistances of 2-4 MΩ. The pipette solution contained (in mM): 130 NaCl, 10 EGTA, 2 MgCl2, 1 CaCl2, 10 HEPES, 3 Tris-ATP, and 0.3 Tris-GTP, adjusted to pH 7.4 with NaOH and 280 mOsm with sucrose. The bath solution contained (in mM): 137 NaCl, 1 KCl, 1 MgCl2, 0.33 NaH2PO4, 2 CaCl2, 10 HEPES, and 30 μM TTX, adjusted to pH 7.4 with NaOH and 280 mOsm with sucrose.
Recordings from HEK-293 cells were made 48-96 hours post-transfection, at which time expression, as measured by GFP fluorescence, peaked. All HEK-293 data is from current records in which pipette and whole-cell capacitance were about 100% compensated and series resistance was compensated to >80%. Series resistance values were typically <10 MΩ (megaohms), and no records were used in which the voltage error (as defined by Ver=Imax×Ra) was greater than 5 mV. The holding potential of all protocols used for HEK-293 cells was −100 mV except for steady-state inactivation protocols where the holding potential was −120 mV. Current-voltage relationships for all HEK-293 cells were measured using 50 ms test depolarizations. Peak current amplitudes for activation curves were determined by fitting tail currents, elicited by stepping membrane voltage from varying test potentials to −60 mV, with the Boltzman equation. Test potential steps for activation protocols were of varied durations, corresponding to the time to peak of the elicited current. Inactivation curves were determined by fitting peak amplitudes of currents, observed in a test pulse to −20 mV, following 500 ms steps to varying potentials, with the Boltzman equation. Time to peak was determined using the current-voltage protocol described above. Inactivation time constants were determined by fitting the decay phase of currents to an exponential equation and deactivation time constants were determined by fitting the decay phase of tail currents to an exponential equation. […] When a double exponential equation was used to fit Cav3.1 tail currents, the magnitude of the fast component was about 10 fold that of the slow component. Currents were recorded at 40 kHz and on-line filtered at 5. In some cases currents were off-line filtered at 1 kHz to further reduce noise. Current-voltage relationships and tail currents were recorded from HEK cells using an on-line P/−4 subtraction procedure. The average membrane capacitance of untransfected HEK-293 cells in pilot experiments was 12.5+/−0.4 pF (n=8).
Statistical Analysis—All data are reported as mean±SEM and tested for significance by one-way ANOVA. A value of P<0.05 was considered significant and when significant p-values were encountered groups were compared using the Tukey post-hoc test.

The target in assay [2] is T2, Cav2.3 (Homo sapiens, UniProt Q15878).
T2 construct: expressed in transfected cells
T2 sequence (Q15878 whole entry): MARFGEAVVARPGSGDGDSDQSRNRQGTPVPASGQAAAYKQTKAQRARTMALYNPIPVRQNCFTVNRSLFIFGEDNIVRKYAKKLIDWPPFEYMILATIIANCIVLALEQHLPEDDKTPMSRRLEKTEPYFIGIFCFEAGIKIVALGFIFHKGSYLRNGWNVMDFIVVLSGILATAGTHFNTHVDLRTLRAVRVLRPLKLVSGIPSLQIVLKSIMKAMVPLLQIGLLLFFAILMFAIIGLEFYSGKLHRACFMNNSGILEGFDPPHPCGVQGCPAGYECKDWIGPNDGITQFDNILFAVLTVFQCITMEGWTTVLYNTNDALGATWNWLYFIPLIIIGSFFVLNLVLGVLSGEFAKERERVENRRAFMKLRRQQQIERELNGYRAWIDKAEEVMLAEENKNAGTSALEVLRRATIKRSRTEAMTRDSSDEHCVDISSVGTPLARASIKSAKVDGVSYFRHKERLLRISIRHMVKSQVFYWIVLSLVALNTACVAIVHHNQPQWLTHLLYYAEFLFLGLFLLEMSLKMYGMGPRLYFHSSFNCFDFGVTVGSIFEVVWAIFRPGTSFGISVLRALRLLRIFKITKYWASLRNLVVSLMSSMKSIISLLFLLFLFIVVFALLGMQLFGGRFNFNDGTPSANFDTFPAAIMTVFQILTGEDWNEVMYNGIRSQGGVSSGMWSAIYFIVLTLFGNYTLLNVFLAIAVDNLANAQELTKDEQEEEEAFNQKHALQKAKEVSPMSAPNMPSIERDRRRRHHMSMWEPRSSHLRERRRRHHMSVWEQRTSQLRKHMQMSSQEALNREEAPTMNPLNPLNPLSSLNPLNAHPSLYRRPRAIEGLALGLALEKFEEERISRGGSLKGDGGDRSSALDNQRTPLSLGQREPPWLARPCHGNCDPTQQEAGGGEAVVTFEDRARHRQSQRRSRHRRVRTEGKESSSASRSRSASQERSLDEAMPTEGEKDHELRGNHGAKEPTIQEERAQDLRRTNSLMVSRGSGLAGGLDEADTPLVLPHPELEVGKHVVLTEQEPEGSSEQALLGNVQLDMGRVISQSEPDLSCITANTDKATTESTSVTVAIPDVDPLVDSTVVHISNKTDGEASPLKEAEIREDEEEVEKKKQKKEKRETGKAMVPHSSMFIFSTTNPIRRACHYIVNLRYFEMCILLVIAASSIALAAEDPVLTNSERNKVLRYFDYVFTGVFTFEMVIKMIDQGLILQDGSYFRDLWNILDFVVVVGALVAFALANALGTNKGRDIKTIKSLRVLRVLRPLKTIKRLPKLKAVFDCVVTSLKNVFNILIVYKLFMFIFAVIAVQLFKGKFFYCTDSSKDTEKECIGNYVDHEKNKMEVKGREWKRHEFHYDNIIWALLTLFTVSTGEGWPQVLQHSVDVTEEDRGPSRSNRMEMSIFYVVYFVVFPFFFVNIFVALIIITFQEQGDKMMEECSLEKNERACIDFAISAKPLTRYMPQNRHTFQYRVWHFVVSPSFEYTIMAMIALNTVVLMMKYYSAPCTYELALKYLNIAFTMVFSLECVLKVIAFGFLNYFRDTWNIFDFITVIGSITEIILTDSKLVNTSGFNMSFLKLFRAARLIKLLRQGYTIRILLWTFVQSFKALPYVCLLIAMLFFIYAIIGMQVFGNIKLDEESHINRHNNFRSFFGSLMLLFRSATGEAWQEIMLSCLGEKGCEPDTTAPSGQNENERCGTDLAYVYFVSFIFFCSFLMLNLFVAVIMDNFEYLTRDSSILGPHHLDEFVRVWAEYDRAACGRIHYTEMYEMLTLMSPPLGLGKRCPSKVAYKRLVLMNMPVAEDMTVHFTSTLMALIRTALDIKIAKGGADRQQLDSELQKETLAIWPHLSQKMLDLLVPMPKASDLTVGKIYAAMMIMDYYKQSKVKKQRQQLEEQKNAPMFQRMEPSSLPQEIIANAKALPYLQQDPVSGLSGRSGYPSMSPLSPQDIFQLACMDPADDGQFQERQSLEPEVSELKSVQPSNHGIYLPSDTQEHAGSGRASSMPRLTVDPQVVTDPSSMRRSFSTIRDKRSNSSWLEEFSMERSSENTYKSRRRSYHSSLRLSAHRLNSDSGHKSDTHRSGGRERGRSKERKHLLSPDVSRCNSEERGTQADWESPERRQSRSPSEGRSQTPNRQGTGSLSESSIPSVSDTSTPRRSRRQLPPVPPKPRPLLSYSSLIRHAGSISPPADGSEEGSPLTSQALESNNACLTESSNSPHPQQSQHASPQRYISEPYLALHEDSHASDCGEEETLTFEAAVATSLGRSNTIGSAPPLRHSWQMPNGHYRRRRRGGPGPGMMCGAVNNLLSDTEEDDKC
Briefly: Calcium current density in heterologous expression system, Cav2.3. Particulars: heterologous expression systems.

Assay [3] addresses T3, Cav3.2 (Homo sapiens, UniProt O95180).
T3 construct: expressed in transfected cells; host or cells: heterologous expression system (HEK-293 stably transfected with Cav3.2 is mentioned)
Briefly: Calcium current density in heterologous expression system, Cav3.2. Particulars: heterologous expression systems.

T1 sequence (O43497 whole entry): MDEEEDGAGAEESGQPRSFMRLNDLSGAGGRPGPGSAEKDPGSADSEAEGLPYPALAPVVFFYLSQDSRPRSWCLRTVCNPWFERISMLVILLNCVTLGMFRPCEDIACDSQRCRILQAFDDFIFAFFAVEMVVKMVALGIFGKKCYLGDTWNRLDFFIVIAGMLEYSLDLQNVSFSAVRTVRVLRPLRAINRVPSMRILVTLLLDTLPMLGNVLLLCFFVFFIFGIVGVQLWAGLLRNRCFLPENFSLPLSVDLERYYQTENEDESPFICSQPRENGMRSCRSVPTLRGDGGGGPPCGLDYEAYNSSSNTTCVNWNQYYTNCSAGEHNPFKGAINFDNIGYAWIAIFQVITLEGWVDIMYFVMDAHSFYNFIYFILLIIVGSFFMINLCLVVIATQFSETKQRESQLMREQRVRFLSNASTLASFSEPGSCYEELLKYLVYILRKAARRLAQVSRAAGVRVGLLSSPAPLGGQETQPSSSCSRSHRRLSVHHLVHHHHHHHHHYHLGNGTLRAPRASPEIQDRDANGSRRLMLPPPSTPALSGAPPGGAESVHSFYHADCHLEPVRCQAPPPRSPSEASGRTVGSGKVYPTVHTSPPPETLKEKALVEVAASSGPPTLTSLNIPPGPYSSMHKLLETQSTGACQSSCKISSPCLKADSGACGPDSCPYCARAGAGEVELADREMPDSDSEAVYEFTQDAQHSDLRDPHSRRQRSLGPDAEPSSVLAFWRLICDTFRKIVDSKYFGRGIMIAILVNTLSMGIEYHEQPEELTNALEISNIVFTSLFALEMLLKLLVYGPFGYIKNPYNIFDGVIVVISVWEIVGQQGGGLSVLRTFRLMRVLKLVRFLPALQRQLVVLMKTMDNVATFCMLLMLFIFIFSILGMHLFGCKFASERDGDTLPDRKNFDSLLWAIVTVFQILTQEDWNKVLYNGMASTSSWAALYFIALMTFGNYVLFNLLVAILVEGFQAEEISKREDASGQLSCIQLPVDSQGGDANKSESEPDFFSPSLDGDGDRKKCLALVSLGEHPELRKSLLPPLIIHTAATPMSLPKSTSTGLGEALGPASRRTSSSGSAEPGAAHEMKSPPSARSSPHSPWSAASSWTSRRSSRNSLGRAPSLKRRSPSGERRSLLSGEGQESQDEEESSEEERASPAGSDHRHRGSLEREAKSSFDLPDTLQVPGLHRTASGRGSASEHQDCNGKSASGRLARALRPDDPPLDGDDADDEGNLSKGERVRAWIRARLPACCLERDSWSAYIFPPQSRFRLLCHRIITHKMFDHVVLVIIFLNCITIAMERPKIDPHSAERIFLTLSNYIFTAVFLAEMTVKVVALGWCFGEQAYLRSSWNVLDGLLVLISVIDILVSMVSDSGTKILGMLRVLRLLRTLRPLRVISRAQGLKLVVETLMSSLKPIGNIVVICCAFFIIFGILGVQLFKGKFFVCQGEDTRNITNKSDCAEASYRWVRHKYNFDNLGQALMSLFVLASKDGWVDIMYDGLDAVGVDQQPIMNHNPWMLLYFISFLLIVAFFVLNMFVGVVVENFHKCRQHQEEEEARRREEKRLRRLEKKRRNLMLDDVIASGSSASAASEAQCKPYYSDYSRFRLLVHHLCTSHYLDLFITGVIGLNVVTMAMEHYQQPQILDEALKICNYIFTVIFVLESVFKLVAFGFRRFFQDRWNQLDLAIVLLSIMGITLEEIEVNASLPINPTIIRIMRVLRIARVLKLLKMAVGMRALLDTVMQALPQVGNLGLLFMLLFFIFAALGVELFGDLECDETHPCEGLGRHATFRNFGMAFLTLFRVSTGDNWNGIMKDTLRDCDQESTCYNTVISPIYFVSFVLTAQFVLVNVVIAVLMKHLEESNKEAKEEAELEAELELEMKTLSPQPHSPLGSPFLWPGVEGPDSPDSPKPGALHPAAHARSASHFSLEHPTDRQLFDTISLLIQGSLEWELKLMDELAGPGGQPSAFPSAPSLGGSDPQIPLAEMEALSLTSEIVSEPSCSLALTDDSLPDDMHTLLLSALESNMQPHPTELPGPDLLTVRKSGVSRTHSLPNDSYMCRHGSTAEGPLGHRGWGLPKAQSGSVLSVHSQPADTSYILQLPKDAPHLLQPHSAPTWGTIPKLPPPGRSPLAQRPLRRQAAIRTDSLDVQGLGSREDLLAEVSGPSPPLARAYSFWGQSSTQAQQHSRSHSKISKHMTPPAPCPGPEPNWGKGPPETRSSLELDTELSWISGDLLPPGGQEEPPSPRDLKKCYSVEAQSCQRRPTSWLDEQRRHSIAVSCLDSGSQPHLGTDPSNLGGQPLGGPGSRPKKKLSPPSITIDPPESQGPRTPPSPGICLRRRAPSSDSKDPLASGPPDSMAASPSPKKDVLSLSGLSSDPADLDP

B1: γ6L: rat calcium channel γ6 subunit, long isoform (AF361343), SEQ ID NO:48 (protein, listed as Rattus norvegicus)
chain: MMWSNFFMQEEDRRRTAVGRRRAQEQQNLGLTPEREGKIKLGLLVAIVGATLAVLAVGTEFWVELNTYKTNGSAVCEAAHLGLWKVCIKRLWQADVPAGRETCGPAELPGEANCTYFKFFTTGENAHIFQRTTKKEVNLAAAVIAVLGLTAMALGCLCVIMVLSKGAEFLLRLGAVCFGLSGLLLFVSLEVFRHSVRALLQGVNPETPPAPRLAYEYSWSLGCGVGAGLILLLGGVCFLLLTLPSWPWRSLCPKRGGPTA
Consider B1, for which, in assay [1], the “Activation V 0.5” value is listed as −36.3 ± 6.2 (n = 4) mV; the Activation k was 12.7 ± 1.5 (n = 4); the “Deactivation tau @ −100 mV, Fast” value is recorded as 1.54 ± 0.48 (n = 4) ms; the “Inactivation V 0.5” value is listed as −78.5 ± 2.6 (n = 6) mV. Further, in assay [1], the Inactivation k is 5.4 ± 0.3 (n = 6), the “Inactivation tau @−20 mV” value was 18.6 ± 1.1 (n = 6) ms, the “Time to peak @ −20 mV” value is on record as 6.0 ± 0.8 (n = 5) ms and the V peak is listed as −31.1 ± 3.1 (n = 9) mV. The “Effect on Cav2.3 calcium current density” value in assay [2] is recorded as “decreased”. In assay [3], the “Effect on Cav3.2 calcium current density” value is “decreased”.

B2: γ4: rat calcium channel γ4 subunit (AF361341), SEQ ID NO:47 (protein, listed as Rattus norvegicus)
chain: MVRCDRGLQMLLTTAGAFAAFSLMAIAIGTDYWLYSSAHICNGTNLTMDDGPPPRRARGDLTHSGLWRVCCIEGIYKGHCFRINHFPEDNDYDHDSSEYLLRIVRASSVFPILSTILLLLGGLCIGAGRIYSRKNNIVLSAGILFVAAGLSNIIGIIVYISSNTGDPSDKRDEDKKNHYNYGWSFYFGALSFIVAETVGVLAVNIYIEKNKELRFKTKREFLKASSSSPYSRMPSYRYRRRRSRSSSRSTEASPSRDASPVGLKITGAIPMGELSMYTLSREPLKVTTAASYSPDQDAGFLQMHDFFQQDLKEGFHVSMLNRRTTPV
As for B2, in assay [1], the “Activation V 0.5” value is reported as −37.3 ± 0.9 (n = 8) mV; the Activation k was 11.8 ± 0.5 (n = 8); the “Deactivation tau @ −100 mV, Fast” value was 1.84 ± 0.28 (n = 8) ms; the “Inactivation V 0.5” value was −79.2 ± 1.5 (n = 7) mV. In assay [1], the Inactivation k was 6.1 ± 0.2 (n = 7), the “Inactivation tau @−20 mV” value is given as 15.8 ± 0.7 (n = 7) ms, the “Time to peak @ −20 mV” value was 5.2 ± 0.5 (n = 9) ms and the V peak is reported as −30.6 ± 1.5 (n = 9) mV.
